Molecular target: T1, hexa-histidine tagged PsMT2 (Papaver somniferum, UniProt I3PLQ6 1-356)
T1 construct: PsMT2, O-methyltransferase of the noscapine gene cluster of Papaver somniferum; gene codon-optimised for S. cerevisiae, amplified with primers PsMT2-pET-F/R and inserted into pET28a; Printed mass of the His-tagged protein is 40.09 kDa; also called His-tagged PsMT2; source: E. coli BL21(DE3), co-expressed with T7-tagged PsMT3 or Ps6OMT; complex purified (Ni-NTA agarose, then T7 tag antibody …)
T1 sequence (looked up): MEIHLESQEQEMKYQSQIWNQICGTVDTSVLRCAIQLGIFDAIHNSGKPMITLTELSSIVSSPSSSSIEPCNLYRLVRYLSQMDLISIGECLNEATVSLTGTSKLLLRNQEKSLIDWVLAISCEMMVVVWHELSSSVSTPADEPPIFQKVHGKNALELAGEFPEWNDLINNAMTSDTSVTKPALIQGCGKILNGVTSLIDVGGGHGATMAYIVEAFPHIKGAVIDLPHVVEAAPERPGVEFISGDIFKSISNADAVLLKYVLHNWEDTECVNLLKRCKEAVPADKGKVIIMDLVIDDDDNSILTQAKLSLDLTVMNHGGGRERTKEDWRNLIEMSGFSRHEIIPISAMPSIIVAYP
Test: pull-down; tandem affinity co-purification from lysate of E. coli co-expressing both proteins: Ni-NTA agarose (His-tagged PsMT2), eluate then on T7 tag antibody agarose (T7-tagged partner); product analysed by SDS-PAGE and western blot with Anti-6X His tag and Anti-T7 tag antibodies
Details: partners not purified

- binding result: binds
B1: Ps6OMT with T7 tag (enzyme, Papaver somniferum, UniProt Q6WUC1 1-346, looked up)
chain: METVSKIDQQNQAKIWKQIYGFAESLVLKCAVQLEIAETLHNNVKPMSLSELASKLPVAQPVNEDRLFRIMRYLVHMELFKIDATTQKYSLAPPAKYLLRGWEKSMVDSILCINDKDFLAPWHHLGDGLTGNCDAFEKALGKSIWVYMSVNPEKNQLFNAAMACDTRLVTSALANECKSIFSDGISTLVDVGGGTGTAVKAISKAFPDIKCTIYDLPHVIADSPEIPNITKISGDMFKSIPSADAIFMKCILHDWNDDECIQILKRCKEALPKGGKVIIVDVVIDMDSTHPYAKIRLTLDLDMMLNTGGKERTKEEWKTLFDAAGFASHKVTQISAVQSVIEAYPY
notes: norcoclaurine 6-O-methyltransferase from Papaver somniferum (Ps6OMT); also called norcoclaurine 6-O-methyltransferase from P. somniferum; source: E. coli, co-transformed with pCS3306 (His-tagged PsMT2) and pCS3534; complex purified by a similar procedure as PsMT2/PsMT3 (Ni-NTA agarose, then T7 tag antibody agarose); not shown: T7 tag, C-terminal, kept
